B1: hzB7v29-xELL-Fc (Fc fusion)
chain: QVQLVQSGGGEVQPGGSLRLSCAASGFTFDDYAMSWVRQAPGKGLEWVSTITWDAEGTYYAAPVKGRFTISRDNAKNTVYLQMSSLRAEDTAVYYCAKGSPELQYDTWGQGTLVTVKPDKTHTCPPCPAPGGPSVFLFPPKPKDTLMISRTPEVTCVVVDVSHEDPEVKFNWYVDGVEVHNAKTKPREEQYNSTYRVVSVLTVLHQDWLNGKEYKCKVSNKALPAPIEKTISKAKGQPREPQVYTLPPSRDELTKNQVSLTCLVKGFYPSDIAVEWESNGQPENNYKTTPPVLDSDGSFFLYSKLTVDKSRWQQGNVFSCSVMHEALHNHYTQKSLSLSPGK
notes: Homodimeric VHH-human IgG1 Fc xELL fusion
B2: hzB7v41-xELL-Fc (Fc fusion)
chain: B1 chain with E56G, K117R
notes: as for B1
B3: hzB7v35-xELL-Fc (Fc fusion)
chain: B1 chain with Q13K
notes: as for B1
B4: hzB7v21-xELL-P329G-KiH Fc-IL-2 mutant (Fc fusion)
chain 1: QVQLVQSGGGEVQPGGSLRLSCAASGFTFDDYAMSWVRQAPGKGLEWVSTITWDAEGTDYAESVKGRFTISRDNAKNTVYLQMSSLRAEDTAVYYCAKGSPELQYDTWGQGTLVTVKPDKTHTCPPCPAPGGPSVFLFPPKPKDTLMISRTPEVTCVVVDVSHEDPEVKFNWYVDGVEVHNAKTKPREEQYNSTYRVVSVLTVLHQDWLNGKEYKCKVSNKALGAPIEKTISKAKGQPREPQVCTLPPSRDELTKNQVSLSCAVKGFYPSDIAVEWESNGQPENNYKTTPPVLDSDGSFFLVSKLTVDKSRWQQGNVFSCSVMHEALHNRYTQKSLSLSPG
chain 2: B4 chain 1 with C244Y, S249C, S261W, A263L, V302Y, R330H
notes: Knob-in-hole heterodimer: VHH on the N-terminus of each Fc, mutant IL-2 only on the knob Fc; not shown: mutant, attenuated IL-2 fused to the C-terminus of the knob Fc
B5: hzB7v27-xELL-P329G-KiH Fc-IL-2 mutant (Fc fusion)
chain 1: B4 chain 1 with D59Y
chain 2: B4 chain 1 with D59Y, C244Y, S249C, S261W, A263L, V302Y, R330H
notes: as for B4
B6: hzB7v23-xELL-P329G-KiH Fc-IL-2 mutant (Fc fusion)
chain 1: B4 chain 1 with D31S
chain 2: B4 chain 1 with D31S, C244Y, S249C, S261W, A263L, V302Y, R330H
notes: as for B4
B7: hzB7v28-xELL-P329G-KiH Fc-IL-2 mutant (Fc fusion)
chain 1: B4 chain 1 with E62A, S63P
chain 2: B4 chain 1 with E62A, S63P, C244Y, S249C, S261W, A263L, V302Y, R330H
notes: as for B4
B8: hzB7v19-xELL-P329G-KiH Fc-IL-2 mutant (Fc fusion)
chain 1: B4 chain 1 with Q6E
chain 2: B4 chain 1 with Q6E, C244Y, S249C, S261W, A263L, V302Y, R330H
notes: as for B4
B9: hzB7v20-xELL-P329G-KiH Fc-IL-2 mutant (Fc fusion)
chain 1: B4 chain 1 with Q1E
chain 2: B4 chain 1 with Q1E, C244Y, S249C, S261W, A263L, V302Y, R330H
notes: as for B4
B10: hzB7v26-xELL-P329G-KiH Fc-IL-2 mutant (Fc fusion)
chain 1: B4 chain 1 with E56G
chain 2: B4 chain 1 with E56G, C244Y, S249C, S261W, A263L, V302Y, R330H
notes: as for B4
B11: hzB7v24-xELL-P329G-KiH Fc-IL-2 mutant (Fc fusion)
chain 1: B4 chain 1 with D30S, D31S
chain 2: B4 chain 1 with D30S, D31S, C244Y, S249C, S261W, A263L, V302Y, R330H
notes: as for B4
B12: hzB7v25-xELL-P329G-KiH Fc-IL-2 mutant (Fc fusion)
chain 1: B4 chain 1 with D54S
chain 2: B4 chain 1 with D54S, C244Y, S249C, S261W, A263L, V302Y, R330H
notes: as for B4
B13: hzB7v30-xELL-KiH Fc-IL-2 mutant (Fc fusion)
chain 1: B1 chain with E56G, Y59D, Y244C, T261S, L263A, Y302V, H330R
chain 2: B4 chain 1 with E56G, E62A, S63P, G224P, C244Y, S249C, S261W, A263L, V302Y, R330H
notes: as for B4
B14: hzB7v39-xELL-KiH Fc-IL-2 mutant (Fc fusion)
chain 1: B1 chain with Q13K, D54S, Y244C, T261S, L263A, Y302V, H330R
chain 2: QVQLVQSGGGEVKPGGSLRLSCAASGFTFDDYAMSWVRQAPGKGLEWVSTITWSAEGTYYAAPVKGRFTISRDNAKNTVYLQMSSLRAEDTAVYYCAKGSPELQYDTWGQGTLVTVKPDKTHTCPPCPAPGGPSVFLFPPKPKDTLMISRTPEVTCVVVDVSHEDPEVKFNWYVDGVEVHNAKTKPREEQYNSTYRVVSVLTVLHQDWLNGKEYKCKVSNKALPAPIEKTISKAKGQPREPQVYTLPPCRDELTKNQVSLWCLVKGFYPSDIAVEWESNGQPENNYKTTPPVLDSDGSFFLYSKLTVDKSRWQQGNVFSCSVMHEALHNHYTQKSLSLSPG
notes: as for B4
B15: hzB7v33-xELL-KiH Fc-IL-2 mutant (Fc fusion)
chain 1: B1 chain with D54S, Y244C, T261S, L263A, Y302V, H330R
chain 2: B14 chain 2 with K13Q
notes: as for B4
B16: hzB7v34-xELL-KiH Fc-IL-2 mutant (Fc fusion)
chain 1: B1 chain with D54S, E56G, Y59D, Y244C, T261S, L263A, Y302V, H330R
chain 2: B14 chain 2 with K13Q, E56G, Y59D
notes: as for B4
B17: hzB7v37-xELL-KiH Fc-IL-2 mutant (Fc fusion)
chain 1: B1 chain with Q13K, E56G, Y244C, T261S, L263A, Y302V, H330R
chain 2: B14 chain 2 with S54D, E56G
notes: as for B4

The values that follow come from US20250320295A1 (INHIBRX BIOSCIENCES, published 2025).

Residue numbers refer to the chain shown, from its start. Numbers in names are those of the source.

T2 sequence (P01732 22-235): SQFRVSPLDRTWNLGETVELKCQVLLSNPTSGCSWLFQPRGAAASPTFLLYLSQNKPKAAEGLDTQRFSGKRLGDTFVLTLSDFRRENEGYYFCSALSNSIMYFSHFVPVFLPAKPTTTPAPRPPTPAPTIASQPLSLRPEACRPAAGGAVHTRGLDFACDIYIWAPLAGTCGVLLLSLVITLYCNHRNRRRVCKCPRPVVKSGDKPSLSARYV

For one assay, the target named is T1, Cynomolgus monkey CD8a (cynomolgus monkey).
T1 construct: whole, on cells; On transfected HEK293F cells (full length) or natively on cynomolgus PBMC T cells; also called cynomolgus CD8a-FL; cynomolgus monkey CD8α
Put plainly: flow cytometry, cynomolgus PBMC, PI-CD3+CD4- gate. On the procedure: Binding of four polypeptides comprising a humanized CD8a-binding VHH domain fused to an xELL fc region was assessed by flow cytometry on isolated human T cells and on isolated human or cynomolgus monkey peripheral blood mononuclear cells (PBMC). The isolated cells were plated in a 96-well plate at 200,000 cells per well for cynomolgus monkey PBMC, and 100,000 cells per well for human T cells in FACS buffer (PBS, 1% BSA, 0.1% NaN₃, pH 7.4). […] FACS buffer alone was used as a secondary antibody-only control. Polypeptide dilutions were added to an equal volume of cells, and assay plates were incubated for 30 minutes at 4° C. After washing twice with 150 μL of FACS buffer per well, the cells were resuspended in FACS buffer with a fluorescently labeled anti-human IgG antibody diluted 1:1000 to detect CD8α binding, fluorescently labeled anti-CD3 antibody (clone SP34.2, 1:50, for PBMC preparations only), and fluorescently labeled anti-CD4 antibody (clone OKT4, 1:100). Propidium iodide (PI) was added at 1:2000 to distinguish live cells from dead cells. Assay plates were incubated at 4° C. for 30 minutes. After one additional wash with 150 μL of FACS buffer CD8α binding was detected by flow cytometry on PI−(CD3+) CD4− cells. Binding was measured on these cell populations as mean fluorescence intensity (MFI) at 647 nm. Flow cytometric detection was performed on an ACEA Biosciences Novocyte-Quanteon Flow Cytometer. The data were plotted and analyzed using GraphPad Prism analysis software. The results are shown in Table 12 and 13 and in FIGS. 10A-D.
Consider B1, for which the dissociation constant Kd came out at 0.0317 nM.

In turn, B2 had a Kd of 0.0499 nM.

The molecule B3 had a Kd of 0.0236 nM.

The next assay addresses T2, Human CD8a (human, UniProt P01732 22-235).
T2 construct: also called CD8α; human CD8a-FL
The assay is described as follows: flow cytometry, HEK293F cells transfected with human CD8a (citrine+ gate). On the procedure:
Binding of polypeptides comprising a humanized CD8a-binding VHH domain, an Fc region, and, in certain polypeptides, a mutated, attenuated IL-2 fused to the C-terminus of the Fc region, was assessed by flow cytometry on HEK293F cells transiently transfected with a plasmid encoding human CD8α or CD8b chains. […] Complexes or polypeptides that are not labeled “KiH” form homodimers under physiologic conditions. The transfected cells were plated in a 96-well plate at 50,000 cells per well in FACS buffer (PBS, 1% BSA, 0.1% NaN₃, pH 7.4). Test polypeptides were then diluted to 2× the final concentration of 500 nM, and a 6-fold serial dilution was made. FACS buffer with no polypeptide was used as a secondary antibody-only control. Test polypeptides were added to an equal volume of cells, and assay plates were incubated for 30 minutes at 4° C. After washing twice with 150 μL of FACS buffer per well, the cells were resuspended in FACS buffer with a fluorescently-labeled anti-human Fc antibody diluted 1:1000 to detect CD8 binding. Assay plates were incubated at 4° C. for 30 minutes. After one additional wash with 150 μL of FACS buffer, polypeptide bound to CD8 was detected by flow cytometry on cells positive for the transfection marker citrine. Binding was measured on these cell populations as mean fluorescence intensity (MFI) at 647 nm. Flow cytometric detection was performed on an IntelliCyt iQue Screener Plus. The data were plotted and analyzed using GraphPad Prism analysis software.
Regarding B4, the Kd is 5.23 nM.

Regarding B5, the “Bmax (MFI)” value came out at 1.45e+07 MFI and the affinity, expressed as Kd, was 3.18 nM.

B6: the “Bmax (MFI)” value is 1.43e+07 MFI and the affinity, expressed as Kd, was 3.9 nM.

For the molecule B7, the “Bmax (MFI)” value turned out to be 1.37e+07 MFI and the Kd was found to be 2.84 nM.

Consider B8, for which binding was put at a Kd of 7.5 nM.

For B9, the Kd stood at 4.48 nM.

As for B10, the “Bmax (MFI)” value came to 1.52e+07 MFI and the Kd amounted to 4.55 nM.

Consider B11, for which the “Bmax (MFI)” value came out at 1.28e+07 MFI and the Kd was determined as 6.54 nM.

On to B12, for which the “Bmax (MFI)” value worked out at 1.45e+07 MFI and the Kd was 3.28 nM.

The target of a further assay is T2, Human CD8a. Put plainly: flow cytometry, isolated human T cells, PI-CD4- gate (table title says transfected HEK293F cells). On the procedure:
Binding of polypeptides comprising a humanized CD8a-binding VHH domain, an Fc region, and, in certain polypeptides, a mutated, attenuated IL-2 fused to the C-terminus of the Fc region, was assessed by flow cytometry on isolated human T cells. […] Complexes or polypeptides that are not labeled “KiH” form homodimers under physiologic conditions. The isolated cells were plated in a 96-well plate at 50,000 cells per well in FACS buffer (PBS, 1% BSA, 0.1% NaN₃, pH 7.4). Test polypeptides were then diluted to 2× the final concentration of 200 nM, and a 5-fold serial dilution was made. FACS buffer with no polypeptide was used as a secondary antibody-only control. Test polypeptides were added to an equal volume of cells, and assay plates were incubated for 30 minutes at 4° C. After washing twice with 150 μL of FACS buffer per well, the cells were resuspended in FACS buffer with a fluorescently-labeled anti-human IgG antibody diluted 1:1000 to detect CD8α binding and fluorescently labeled anti-CD4 antibody (clone OKT4, 1:200). Propidium iodide (PI) was added at 1:2000 to distinguish live cells from dead cells. Assay plates were incubated at 4° C. for 30 minutes. After one additional wash with 150 μL of FACS buffer, polypeptide bound to CD8α was detected by flow cytometry on PI-CD4− and on PI-CD4+ cells. Binding was measured on these cell populations as mean fluorescence intensity (MFI) at 647 nm. Flow cytometric detection was performed on an ACEA Biosciences Novocyte-Quanteon Flow Cytometer. The data were plotted and analyzed using GraphPad Prism analysis software.
On to B13, for which the “Bmax (MFI)” value was 247000 MFI and the Kd came to 0.0943 nM.

For B14, the affinity, expressed as Kd, was 0.148 nM.

Molecule B15 returned a Kd of 0.139 nM.

Turning to B16, the “Bmax (MFI)” value came to 76100 MFI and binding was put at a Kd of 4.05 nM.

For the molecule B17, the “Bmax (MFI)” value came out at 272000 MFI and the Kd is 0.0884 nM.
